Consider four molecules from publication PMC8914513, “Inhibition of Protein Kinase CK2 Affects Thymidylate Synthesis Cycle Enzyme Level and Distribution in Human Cancer Cells” (Frontiers in Molecular Biosciences, 2022).

First the molecules themselves.
B1: dihydrofolate reductase (DHFR), tagless ligand in QCM-D (enzyme, UniProt P00374 1-187, looked up)
chain: MVGSLNCIVAVSQNMGIGKNGDLPWPPLRNEFRYFQRMTTTSSVEGKQNLVIMGKKTWFSIPEKNRPLKGRINLVLSRELKEPPQGAHFLSRSLDDALKLTEQPELANKVDMVWIVGGSSVYKEAMNHPGHLKLFVTRIMQDFESDTFFPEIDLEKYKLLPEYPGVLSDVQEEKGIKYKFEVYEKND
notes: dihydrofolate reductase (DHFR); source: recombinant, overexpressed and purified as described previously (Antosiewicz et al., 2015; Skierka et al., 2019); His tag removed with Thrombin CleanCleave Kit
B2: dihydrofolate reductase (DHFR), fluorescently labeled, as used in MST (enzyme, UniProt P00374 1-187, looked up)
chain: B1 chain
modifications: fluorescently labeled (dye and site not stated)
notes: dihydrofolate reductase (DHFR); also called labeled DHFR; source: recombinant, overexpressed and purified as described previously (Antosiewicz et al., 2015; Skierka et al., 2019)
B3: serine hydroxymethyltransferase, cytosolic (SHMT1), as used in MST (enzyme, UniProt P34896 1-483, looked up)
chain: MTMPVNGAHKDADLWSSHDKMLAQPLKDSDVEVYNIIKKESNRQRVGLELIASENFASRAVLEALGSCLNNKYSEGYPGQRYYGGTEFIDELETLCQKRALQAYKLDPQCWGVNVQPYSGSPANFAVYTALVEPHGRIMGLDLPDGGHLTHGFMTDKKKISATSIFFESMPYKVNPDTGYINYDQLEENARLFHPKLIIAGTSCYSRNLEYARLRKIADENGAYLMADMAHISGLVAAGVVPSPFEHCHVVTTTTHKTLRGCRAGMIFYRKGVKSVDPKTGKEILYNLESLINSAVFPGLQGGPHNHAIAGVAVALKQAMTLEFKVYQHQVVANCRALSEALTELGYKIVTGGSDNHLILVDLRSKGTDGGRAEKVLEACSIACNKNTCPGDRSALRPSGLRLGTPALTSRGLLEKDFQKVAHFIHRGIELTLQIQSDTGVRATLKEFKERLAGDKYQAAVQALREEVESFASLFPLPGLPDF
modifications: fluorescently labeled in the SHMT-TS titration only; unlabeled titrant in the other MST experiments
notes: cytosolic serine hydroxymethyltransferase (SHMT1); Same preparation as m1; source: recombinant, overexpressed, purified (Ni-NTA, dialysis)
B4: serine hydroxymethyltransferase, cytosolic (SHMT1), His-tagged, immobilised in QCM-D (enzyme, UniProt P34896 1-483, looked up)
chain: B3 chain
notes: cytosolic serine hydroxymethyltransferase (SHMT1); Purified and stored with 50 uM pyridoxal phosphate; Captured by its His tag on the QSX340 sensor; also called His-tagged SHMT; His-tagged SHMT1; source: recombinant, overexpressed, purified (Ni-NTA, dialysis)

Common to all, as to conditions: both partners purified
Test [1] concerns the target B4. Briefly: QCM-D (quartz crystal microbalance with dissipation monitoring); two proteins: 5 uM His-tagged SHMT immobilised on His-tag capturing sensor QSX340; tagless ligand introduced (0.1-1.0 uM or 0.5-7.0 uM for TS, pTS or DHFR); 20 mM Tris-HCl pH 7.6, 100 mM (salt not given), 10 mM MgCl2, 0.05% Tween 20, 25 C, 200 ul/min; Langmuir isotherm fit.
For test [2], the target named is B3. Briefly: MST; two proteins in solution, Premium capillaries: labeled DHFR with SHMT 157 uM-4.79 nM; labeled SHMT with TS 62.0 uM-1.9 nM; labeled pTS with SHMT 157 uM-4.79 nM; Kd model fit.
For test [3], the target named is T1, labeled DHFR with a constant concentration of TS (9.0 uM), MST tri-complex assay ( | human, UniProt P00374 1-187; P04818 1-313, fluorescently labeled (dye and site not stated)).
T1 construct: dihydrofolate reductase (DHFR); human thymidylate synthase (TS); A mixture at constant concentrations, not a purified complex; also called DHFR/TS; source: purified recombinant proteins mixed: constant labeled DHFR and 9.0 uM TS
T1 sequence (P04818 whole entry, one chain of several): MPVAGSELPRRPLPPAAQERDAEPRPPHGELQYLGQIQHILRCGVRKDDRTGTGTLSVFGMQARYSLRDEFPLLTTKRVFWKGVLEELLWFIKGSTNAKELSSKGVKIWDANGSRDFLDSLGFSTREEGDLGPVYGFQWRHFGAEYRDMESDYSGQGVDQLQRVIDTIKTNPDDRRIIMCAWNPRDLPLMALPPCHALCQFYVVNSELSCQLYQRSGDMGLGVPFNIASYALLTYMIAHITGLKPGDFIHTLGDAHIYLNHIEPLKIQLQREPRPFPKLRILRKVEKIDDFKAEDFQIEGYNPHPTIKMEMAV
Put plainly: MST; tri-complex: constant labeled DHFR and TS or pTS (9.0 uM), SHMT titrated 157 uM-4.79 nM; Kd model fit.

Test [4] addresses T2, labeled DHFR with a constant concentration of pTS (9.0 uM), MST tri-complex assay ( | human, UniProt P00374 1-187); P04818 1-313, fluorescently labeled (dye and site not stated) | phosphorylated in vitro by CK2alpha; residue not stated for this preparation (the introduction names serine 124 as the site of CK2-mediated …).
T2 construct: dihydrofolate reductase (DHFR); human thymidylate synthase (TS); A mixture at constant concentrations, not a purified complex; also called DHFR/pTS; source: purified recombinant proteins mixed: constant labeled DHFR and 9.0 uM pTS
The test is described as above.

Test [5] concerns the target T3, mixture of DHFR and pTS introduced together in the three-protein QCM-D assay ( | human, UniProt P00374 1-187; P04818 1-313, phosphorylated in vitro by CK2alpha; residue not stated for this preparation (the introduction names serine 124 as the site of CK2-mediated phosphorylation of human TS)).
T3 construct: dihydrofolate reductase (DHFR); human thymidylate synthase (TS); A mixture, not a purified preformed complex; only the DHFR concentration was varied; also called DHFR/pTS; fixed pTS and variable DHFR; source: purified recombinant proteins mixed: pTS fixed at 1.0 uM, DHFR 0.25-2.0 uM
Briefly: QCM-D (quartz crystal microbalance with dissipation monitoring); three proteins: 5 uM His-tagged SHMT1 immobilised on the sensor; mixture of fixed pTS (1.0 uM) and DHFR 0.25-2.0 uM introduced; 20 mM Tris-HCl pH 7.6, 100 mM (salt not given), 10 mM MgCl2, 0.05% Tween 20, 25 C, 200 ul/min; Langmuir isotherm fit.

T3 sequence (P04818 whole entry, one chain of several): as above
T2 sequence (P04818 whole entry, one chain of several): as above

Take B1: the Kd in test [1] was 12.1 ± 7.86 µM.

Molecule B2 showed a Kd in test [2] of 12.6 ± 0.66 µM.

Turning to B3, the values for the Kd in test [3] and in test [4] were 5.04 ± 0.5 µM and 0.32 ± 0.05 µM, respectively.

For B4, in test [5], the Kd amounted to 0.28 ± 0.23 µM.

One may read the Kd as a measure of binding affinity in units of concentration.
